# Measurements reported in PMC6363788, “Crystal structures of human lysosomal EPDR1 reveal homology with the superfamily of bacterial lipoprotein transporters” (Communications Biology, 2019).
# B1: Human EPDR1 (ependymin-related protein 1), glycosylated (natural protein, UniProt Q9UM22-1 38-224, looked up)
# chain: APRPCQAPQQWEGRQVMYQQSSGRNSRALLSYDGLNQRVRVLDERKALIPCKRLFEYILLYKDGVMFQIDQATKQCSKMTLTQPWDPLDIPQNSTFEDQYSIGGPQEQITVQEWSDRKSARSYETWIGIYTVKDCYPVQETFTINYSVILSTRFFDIQLGIKDPSVFTPPSTCQMAQLEKMSEDCSW
# modifications: N-glycan at Asn130; disulfide bonds C42/C172, C113/C210, C88/C222
# notes: EPDR1 (MERP-1; UCC1), human, Uniprot Q9UM22, residues 38-224; The N-terminal tag of the PB-T-PAF plasmid (secretion signal, protein A tag, thrombin site) was removed with thrombin; The six C-terminal histidines have no stated cleavage site, and the protein went through a second Ni2+ step after thrombin, so they were probably kept; also called MERP-1; UCC1; not shown: protein A, N-terminal, cleaved
# Target: the molecule itself
# Experiment: SEC; in solution; the only column and buffer told are those of the purification step (Superdex200 16/60, 10 mM Tris-HCl pH 8.0, 100 mM NaCl)
protein,measurement,value
B1,stoichiometry N,2
